Measured values taken from US20160340439A1.

Legend:
Assay in all cases: IP + mass spec of B16 melanoma proteins; ratio to alloIgG
[1] = target: Vacuolar protein sorting-associated protein 35 (mouse) (UniProt Q9EQH3)
[2] = target: Nicalin (mouse) (UniProt Q8VCM8)
[3] = target: Trifunctional enzyme subunit beta, mitochondrial (mouse) (UniProt Q99JY0)
[4] = target: Fibrous sheath-interacting protein 2 (mouse) (UniProt A2ARZ3)
[5] = target: Translocation protein SEC62 (mouse) (UniProt Q8BU14)
[6] = target: Stromal cell-derived factor 2-like protein 1 (mouse) (UniProt Q9ESP1)
Sequence of UniProt Q9ESP1 (Q9ESP1 29-221 limits assumed): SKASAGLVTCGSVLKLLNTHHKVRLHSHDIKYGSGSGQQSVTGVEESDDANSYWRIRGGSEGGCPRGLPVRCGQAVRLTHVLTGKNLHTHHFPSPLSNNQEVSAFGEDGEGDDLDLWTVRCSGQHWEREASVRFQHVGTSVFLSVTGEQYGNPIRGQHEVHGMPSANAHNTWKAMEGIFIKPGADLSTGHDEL

[7] = target: CDGSH iron-sulfur domain-containing protein 1 (mouse) (UniProt Q91WS0)
Sequence of UniProt Q91WS0 (Q91WS0 whole entry, the tested form may be a part): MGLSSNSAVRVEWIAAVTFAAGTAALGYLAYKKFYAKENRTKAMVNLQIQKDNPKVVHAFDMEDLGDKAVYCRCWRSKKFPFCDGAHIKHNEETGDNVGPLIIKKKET

[8] = target: Arginine and glutamate-rich protein 1 (mouse) (UniProt Q3UL36)
Sequence of UniProt Q3UL36 (Q3UL36 whole entry): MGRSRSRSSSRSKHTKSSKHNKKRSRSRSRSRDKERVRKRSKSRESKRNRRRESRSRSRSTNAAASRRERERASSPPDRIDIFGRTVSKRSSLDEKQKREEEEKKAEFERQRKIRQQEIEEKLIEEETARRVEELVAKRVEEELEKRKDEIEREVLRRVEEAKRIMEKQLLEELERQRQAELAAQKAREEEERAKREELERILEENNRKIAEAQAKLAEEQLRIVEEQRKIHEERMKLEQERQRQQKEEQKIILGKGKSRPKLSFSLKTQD

[9] = target: Mitochondrial inner membrane protein (mouse) (UniProt Q8CAQ8)
Sequence of UniProt Q8CAQ8 (Q8CAQ8 34-757 limits assumed): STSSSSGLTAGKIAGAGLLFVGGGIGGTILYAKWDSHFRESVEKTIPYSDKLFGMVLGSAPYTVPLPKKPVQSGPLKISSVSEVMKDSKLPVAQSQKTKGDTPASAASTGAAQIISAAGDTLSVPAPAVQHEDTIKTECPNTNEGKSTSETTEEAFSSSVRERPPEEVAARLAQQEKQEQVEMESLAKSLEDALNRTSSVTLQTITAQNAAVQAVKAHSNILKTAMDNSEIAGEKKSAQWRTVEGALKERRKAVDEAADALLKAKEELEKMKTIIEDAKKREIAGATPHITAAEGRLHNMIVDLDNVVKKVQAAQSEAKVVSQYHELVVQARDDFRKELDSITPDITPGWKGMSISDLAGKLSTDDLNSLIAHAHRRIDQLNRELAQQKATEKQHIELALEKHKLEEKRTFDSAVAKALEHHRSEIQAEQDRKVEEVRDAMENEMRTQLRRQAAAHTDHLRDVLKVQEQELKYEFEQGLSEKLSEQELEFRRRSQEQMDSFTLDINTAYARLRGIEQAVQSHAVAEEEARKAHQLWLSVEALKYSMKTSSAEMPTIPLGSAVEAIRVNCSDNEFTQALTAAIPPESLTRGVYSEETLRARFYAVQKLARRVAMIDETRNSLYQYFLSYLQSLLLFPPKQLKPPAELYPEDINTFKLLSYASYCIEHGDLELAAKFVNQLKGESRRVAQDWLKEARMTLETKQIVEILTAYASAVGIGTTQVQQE

[10] = target: Disco-interacting protein 2 homolog B (mouse) (UniProt Q3UH60)
Sequence of UniProt Q3UH60 (Q3UH60 whole entry): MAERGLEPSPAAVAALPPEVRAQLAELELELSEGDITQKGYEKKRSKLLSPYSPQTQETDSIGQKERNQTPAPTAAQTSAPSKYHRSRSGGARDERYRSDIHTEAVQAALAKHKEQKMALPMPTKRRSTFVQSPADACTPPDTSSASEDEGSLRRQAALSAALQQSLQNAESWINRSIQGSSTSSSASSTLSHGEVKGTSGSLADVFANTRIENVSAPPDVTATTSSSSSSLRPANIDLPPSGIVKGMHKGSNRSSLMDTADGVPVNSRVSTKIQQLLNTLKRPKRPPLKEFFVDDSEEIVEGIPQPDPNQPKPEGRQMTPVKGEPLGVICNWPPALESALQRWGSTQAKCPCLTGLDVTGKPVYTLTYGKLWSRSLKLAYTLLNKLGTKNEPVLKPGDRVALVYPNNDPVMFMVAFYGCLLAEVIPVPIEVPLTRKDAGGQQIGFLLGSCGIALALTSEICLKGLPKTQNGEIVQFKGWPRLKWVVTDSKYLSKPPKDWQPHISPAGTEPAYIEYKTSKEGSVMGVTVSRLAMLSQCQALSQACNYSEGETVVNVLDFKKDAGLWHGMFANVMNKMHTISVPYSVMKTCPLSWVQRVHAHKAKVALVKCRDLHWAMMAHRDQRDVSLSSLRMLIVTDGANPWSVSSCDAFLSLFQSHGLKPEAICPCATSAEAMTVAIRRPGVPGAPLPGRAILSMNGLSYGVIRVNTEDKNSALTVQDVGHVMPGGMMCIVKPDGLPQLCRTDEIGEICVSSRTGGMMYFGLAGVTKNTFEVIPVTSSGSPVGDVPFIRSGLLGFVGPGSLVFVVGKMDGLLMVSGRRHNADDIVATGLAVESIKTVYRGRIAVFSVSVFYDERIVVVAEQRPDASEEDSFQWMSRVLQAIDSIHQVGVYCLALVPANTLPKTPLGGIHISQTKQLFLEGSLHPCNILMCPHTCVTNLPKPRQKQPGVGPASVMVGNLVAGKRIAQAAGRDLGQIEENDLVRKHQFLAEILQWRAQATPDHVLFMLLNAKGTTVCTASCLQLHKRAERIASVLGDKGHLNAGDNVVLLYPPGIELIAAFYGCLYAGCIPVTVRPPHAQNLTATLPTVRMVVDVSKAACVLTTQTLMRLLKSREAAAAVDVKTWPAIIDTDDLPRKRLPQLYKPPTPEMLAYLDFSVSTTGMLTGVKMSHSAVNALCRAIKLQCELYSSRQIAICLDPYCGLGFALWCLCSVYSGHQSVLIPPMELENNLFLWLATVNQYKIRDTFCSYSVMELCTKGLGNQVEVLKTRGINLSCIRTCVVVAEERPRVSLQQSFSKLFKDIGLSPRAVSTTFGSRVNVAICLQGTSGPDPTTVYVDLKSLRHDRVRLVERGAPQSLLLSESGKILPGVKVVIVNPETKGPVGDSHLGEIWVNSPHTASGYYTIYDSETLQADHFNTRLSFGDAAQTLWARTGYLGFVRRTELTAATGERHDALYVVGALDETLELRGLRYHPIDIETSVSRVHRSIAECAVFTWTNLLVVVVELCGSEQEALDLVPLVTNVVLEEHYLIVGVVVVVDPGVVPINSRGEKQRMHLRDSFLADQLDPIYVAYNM

[11] = target: Angiomotin-like protein 2 (mouse) (UniProt Q8K371)
Sequence of UniProt Q8K371 (Q8K371 whole entry): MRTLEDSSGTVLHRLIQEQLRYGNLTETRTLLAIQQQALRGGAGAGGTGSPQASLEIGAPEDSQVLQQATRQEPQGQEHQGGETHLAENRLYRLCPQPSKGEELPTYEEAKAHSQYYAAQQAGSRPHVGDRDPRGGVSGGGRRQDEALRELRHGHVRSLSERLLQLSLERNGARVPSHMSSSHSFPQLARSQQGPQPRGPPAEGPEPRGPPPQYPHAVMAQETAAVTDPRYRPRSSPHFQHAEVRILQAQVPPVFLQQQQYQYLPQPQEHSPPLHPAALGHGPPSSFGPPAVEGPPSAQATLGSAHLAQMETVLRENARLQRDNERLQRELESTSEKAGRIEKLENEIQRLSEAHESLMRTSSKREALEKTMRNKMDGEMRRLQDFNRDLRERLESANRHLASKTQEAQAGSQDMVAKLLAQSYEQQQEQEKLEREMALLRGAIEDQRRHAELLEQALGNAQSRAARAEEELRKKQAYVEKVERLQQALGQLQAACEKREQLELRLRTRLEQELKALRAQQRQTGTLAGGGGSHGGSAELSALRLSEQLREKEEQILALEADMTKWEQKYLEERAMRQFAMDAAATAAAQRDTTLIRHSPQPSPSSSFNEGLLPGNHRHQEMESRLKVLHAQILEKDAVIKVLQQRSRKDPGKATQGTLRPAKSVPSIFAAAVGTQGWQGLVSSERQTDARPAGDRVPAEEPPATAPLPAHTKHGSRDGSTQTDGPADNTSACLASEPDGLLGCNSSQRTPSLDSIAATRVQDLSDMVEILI

Sequence of UniProt Q8BU14 (Q8BU14 whole entry): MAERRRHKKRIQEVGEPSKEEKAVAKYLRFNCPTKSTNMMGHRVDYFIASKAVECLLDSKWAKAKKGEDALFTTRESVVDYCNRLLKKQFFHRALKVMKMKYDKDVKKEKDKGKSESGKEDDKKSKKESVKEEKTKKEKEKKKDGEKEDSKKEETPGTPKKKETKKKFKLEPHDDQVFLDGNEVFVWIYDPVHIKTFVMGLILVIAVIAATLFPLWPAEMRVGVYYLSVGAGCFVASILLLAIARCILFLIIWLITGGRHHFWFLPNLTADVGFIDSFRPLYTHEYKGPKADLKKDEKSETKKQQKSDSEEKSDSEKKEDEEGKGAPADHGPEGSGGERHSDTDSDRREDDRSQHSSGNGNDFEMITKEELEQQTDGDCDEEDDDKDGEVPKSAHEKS
Sequence of UniProt Q99JY0 (Q99JY0 35-475 limits assumed): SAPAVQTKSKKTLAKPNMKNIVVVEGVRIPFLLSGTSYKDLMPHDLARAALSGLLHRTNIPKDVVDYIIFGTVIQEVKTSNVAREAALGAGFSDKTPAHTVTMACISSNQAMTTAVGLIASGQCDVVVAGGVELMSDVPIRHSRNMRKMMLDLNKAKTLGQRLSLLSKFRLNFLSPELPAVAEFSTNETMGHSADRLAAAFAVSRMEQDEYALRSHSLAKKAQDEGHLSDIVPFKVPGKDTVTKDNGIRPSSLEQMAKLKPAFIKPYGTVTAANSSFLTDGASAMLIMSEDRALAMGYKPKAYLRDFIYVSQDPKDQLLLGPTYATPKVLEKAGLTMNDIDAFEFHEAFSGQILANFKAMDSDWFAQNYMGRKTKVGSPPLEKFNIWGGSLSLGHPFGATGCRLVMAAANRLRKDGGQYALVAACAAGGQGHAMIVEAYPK
Sequence of UniProt Q8VCM8 (Q8VCM8 43-563 limits assumed): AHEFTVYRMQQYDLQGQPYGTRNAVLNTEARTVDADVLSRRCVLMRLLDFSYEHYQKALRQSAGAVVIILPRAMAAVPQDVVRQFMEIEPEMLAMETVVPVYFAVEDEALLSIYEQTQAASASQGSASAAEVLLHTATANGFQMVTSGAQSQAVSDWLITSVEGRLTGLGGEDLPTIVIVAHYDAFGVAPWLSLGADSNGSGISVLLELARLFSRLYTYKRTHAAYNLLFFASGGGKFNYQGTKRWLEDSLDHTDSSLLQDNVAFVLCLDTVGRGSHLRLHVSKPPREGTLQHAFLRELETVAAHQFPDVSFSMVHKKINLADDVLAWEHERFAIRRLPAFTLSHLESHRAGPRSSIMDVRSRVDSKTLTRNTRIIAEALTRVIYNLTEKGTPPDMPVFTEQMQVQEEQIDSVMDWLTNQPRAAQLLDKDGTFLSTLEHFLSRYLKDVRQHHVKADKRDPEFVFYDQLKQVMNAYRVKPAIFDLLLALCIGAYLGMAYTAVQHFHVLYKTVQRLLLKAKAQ

Q: With “syngeneic IgG (from sera of C57B1/6 mice) (antibody)” as the substance, how does the syn/allo ratio [1] read?
A: 2

Q: And the syn/allo ratio [2]?
A: 2

Q: What about the syn/allo ratio [3] of the same substance?
A: 2.6

Q: And the syn/allo ratio [4]?
A: 9

Q: And the syn/allo ratio [5]?
A: 4

Q: What about the syn/allo ratio [6] of the same substance?
A: 3

Q: What about the syn/allo ratio [7] of the same substance?
A: 2

Q: And the syn/allo ratio [8]?
A: 2

Q: What about the syn/allo ratio [9] of the same substance?
A: 2.99

Q: And the syn/allo ratio [10]?
A: 4

Q: And the syn/allo ratio [11]?
A: 6
